Patent US20250206828A1, “ANTI-ADENOSINE RECEPTOR (A2aR) ANTIBODIES AND THE USE THEREOF” (Adept Therapeutics Inc., priority 2022, published 2025)

B1: Hu3F6-H4/Hu3F6-L5 (antibody, human IgG1, V domains shown)
VH: EVQLVQSGAEVKKPGASVKVSCKTSGFAFTSYWMNWVRQAPGQGLEWIGRIDPSDSEAHYHHKFWGRATLTVDKSSSTVYMELSSLRSEDTAVYYCLRSLYGKGDYWGHGTTVTVSS
VL: DVVMTQTPLSLSVTPGQPASISCRSSQSLVHRNGNTYLEWYLQKPGQSPQLLIYKVSNRFSGVPDRFSGSGSGTDFTLKISRVEAEDVGVYYCYQGSHVPLTFGGGTKVEIK
notes: Human IgG1 FES (L234F, L235E, P331S) and human Ig kappa constant domains
B2: Hu3F6-H4/Hu3F6-L3 (antibody, human IgG1, V domains shown)
VH: EVQLVQSGAEVKKPGASVKVSCKTSGFAFTSYWMNWVRQAPGQGLEWIGRIDPSDSEAHYHHKFWGRATLTVDKSSSTVYMELSSLRSEDTAVYYCLRSLYGKGDYWGHGTTVTVSS
VL: DVVMTQSPLSLPVTLGQPASISCRSSQSLVHRNGNTYLEWYQQRPGQSPRLLIYKVSNRFSGVPDRFSGSGSGTDFTLKISRVEAEDVGVYYCYQGSHVPLTFGGGTKVEIK
notes: as for B1
B3: Hu3F6-H4/Hu3F6-L6 (antibody, human IgG1, V domains shown)
VH: EVQLVQSGAEVKKPGASVKVSCKTSGFAFTSYWMNWVRQAPGQGLEWIGRIDPSDSEAHYHHKFWGRATLTVDKSSSTVYMELSSLRSEDTAVYYCLRSLYGKGDYWGHGTTVTVSS
VL: DIVMTQTPPSLPVNPGEPASISCRSSQSLVHRNGNTYLEWYLQKPGQSPQLLIYKVSNRFSGVPDRFSGSGSGSDFTLKISWVEAEDVGVYYCYQGSHVPLTFGGGTKVEIK
notes: as for B1
B4: Hu3F6-H4/Hu3F6-L4 (antibody, human IgG1, V domains shown)
VH: EVQLVQSGAEVKKPGASVKVSCKTSGFAFTSYWMNWVRQAPGQGLEWIGRIDPSDSEAHYHHKFWGRATLTVDKSSSTVYMELSSLRSEDTAVYYCLRSLYGKGDYWGHGTTVTVSS
VL: DIVMTQTPLSLSVTPGQPASISCRSSQSLVHRNGNTYLEWYLQKPGQSPQLLIYKVSNRFSGVPDRFSGSGSGTDFTLKISRVEAEDVGVYYCYQGSHVPLTFGGGTKVEIK
notes: as for B1
B5: Hu3F6-H4/Hu3F6-L7 (antibody, human IgG1, V domains shown)
VH: EVQLVQSGAEVKKPGASVKVSCKTSGFAFTSYWMNWVRQAPGQGLEWIGRIDPSDSEAHYHHKFWGRATLTVDKSSSTVYMELSSLRSEDTAVYYCLRSLYGKGDYWGHGTTVTVSS
VL: DVVMTQTPPSLPVNPGEPASISCRSSQSLVHRNGNTYLEWYLQKPGQSPQLLIYKVSNRFSGVPDRFSGSGSGSDFTLKISWVEAEDVGVYYCYQGSHVPLTFGGGTKVEIK
notes: as for B1
B6: Hu3F6-H4/Hu3F6-L2 (antibody, human IgG1, V domains shown)
VH: EVQLVQSGAEVKKPGASVKVSCKTSGFAFTSYWMNWVRQAPGQGLEWIGRIDPSDSEAHYHHKFWGRATLTVDKSSSTVYMELSSLRSEDTAVYYCLRSLYGKGDYWGHGTTVTVSS
VL: DVVMTQSPLSLPVTLGQPASISCRSSQSLVHRNGNTYLEWYQQRPGQSPRRLIYKVSNRFSGVPDRFSGSGSGTDFTLKISRVEAEDVGVYYCYQGSHVPLTFGGGTKVEIK
notes: as for B1
B7: Hu3F6-H5/Hu3F6-L7 (antibody, human IgG1, V domains shown)
VH: EVQLVQSGAEVKKPGASVKVSCKTSGFAFTSYWMNWVRQAPGQGLEWIGRIDPSDSEAHYAHKFWGRATLTVDKSSSTVYMELSSLRSEDTAVYYCLRSLYGKGDYWGHGTTVTVSS
VL: DVVMTQTPPSLPVNPGEPASISCRSSQSLVHRNGNTYLEWYLQKPGQSPQLLIYKVSNRFSGVPDRFSGSGSGSDFTLKISWVEAEDVGVYYCYQGSHVPLTFGGGTKVEIK
notes: as for B1
B8: Hu3F6-H5/Hu3F6-L6 (antibody, human IgG1, V domains shown)
VH: EVQLVQSGAEVKKPGASVKVSCKTSGFAFTSYWMNWVRQAPGQGLEWIGRIDPSDSEAHYAHKFWGRATLTVDKSSSTVYMELSSLRSEDTAVYYCLRSLYGKGDYWGHGTTVTVSS
VL: DIVMTQTPPSLPVNPGEPASISCRSSQSLVHRNGNTYLEWYLQKPGQSPQLLIYKVSNRFSGVPDRFSGSGSGSDFTLKISWVEAEDVGVYYCYQGSHVPLTFGGGTKVEIK
notes: as for B1
B9: Hu1B5-H1/Hu1B5-L4 (antibody, human IgG1, V domains shown)
VH: QVQLVQSGAEVKKPGASVKVSCKASGFTFTRFWMNWVRQAPGQGLEWMGRIDPYDSETQYNHKFWDRVTMTRDTSTSTVYMELSSLRSEDTAVYYCGRSLYGKGDYWGQGTTVTVSS
VL: DVVMTQSPLSLPVTPGEPASISCRSSQSIVHSNGNTYLEWYLQKPGQSPQLLIYKVSNRFSGVPDRFSGSGSGTDFTLKISRVEAEDVGVYYCFQGSHVPLTFGGGTKVEIK
notes: as for B1
B10: Hu1B5-H1/Hu1B5-L1 (antibody, human IgG1, V domains shown)
VH: QVQLVQSGAEVKKPGASVKVSCKASGFTFTRFWMNWVRQAPGQGLEWMGRIDPYDSETQYNHKFWDRVTMTRDTSTSTVYMELSSLRSEDTAVYYCGRSLYGKGDYWGQGTTVTVSS
VL: DVVMTQSPLSLPVTLGQPASISCRSSQSIVHSNGNTYLEWFQQRPGQSPRRLIYKVSNRFSGVPDRFSGSGSGTDFTLKISRVEAEDVGVYYCFQGSHVPLTFGGGTKVEIK
notes: as for B1
B11: Hu1B5-H2.1/Hu1B5-L5 (antibody, human IgG1, V domains shown)
VH: EVQLVQSGAEVKKPGASVKVSCKTSGFTFTRFWMNWVRQAPGQGLEWIGRIDPYDSETQYNHKFWDRVTMTVDTSTSTVYMELSSLRSEDTAVYYCGRSLYGKGDYWGQGTTVTVSS
VL: DIVMTQSPDSLAVSLGERATINCRSSQSIVHSNGNTYLEWYQQKPGQPPKLLIYKVSNRFSGVPDRFSGSGSGTDFTLTISSLQAEDVAVYYCFQGSHVPLTFGGGTKVEIK
notes: as for B1
B12: Hu1B5-H3/Hu1B5-L5 (antibody, human IgG1, V domains shown)
VH: EVQLVQSGAEVKKPGASVKVSCKTSGFTFTRFWMNWVRQAPGQGLEWIGRIDPYDSETQYNHKFWDRATLTVDTSSSTVYMELSSLRSEDTAVYYCGRSLYGKGDYWGQGTTVTVSS
VL: DIVMTQSPDSLAVSLGERATINCRSSQSIVHSNGNTYLEWYQQKPGQPPKLLIYKVSNRFSGVPDRFSGSGSGTDFTLTISSLQAEDVAVYYCFQGSHVPLTFGGGTKVEIK
notes: as for B1
B13: Hu1B5-H3/Hu1B5-L4 (antibody, human IgG1, V domains shown)
VH: EVQLVQSGAEVKKPGASVKVSCKTSGFTFTRFWMNWVRQAPGQGLEWIGRIDPYDSETQYNHKFWDRATLTVDTSSSTVYMELSSLRSEDTAVYYCGRSLYGKGDYWGQGTTVTVSS
VL: DVVMTQSPLSLPVTPGEPASISCRSSQSIVHSNGNTYLEWYLQKPGQSPQLLIYKVSNRFSGVPDRFSGSGSGTDFTLKISRVEAEDVGVYYCFQGSHVPLTFGGGTKVEIK
notes: as for B1
B14: Hu1B5-H5/Hu1B5-L4 (antibody, human IgG1, V domains shown)
VH: EVQLVQSGAEVKKPGASVKVSCKTSGFTFTRFWMNWVRQAPGQGLEWIGRIDPYDSETQYAHKFWDRATLTVDKSSSTVYMELSSLRSEDTAVYYCGRSLYGKGDYWGQGTTVTVSS
VL: DVVMTQSPLSLPVTPGEPASISCRSSQSIVHSNGNTYLEWYLQKPGQSPQLLIYKVSNRFSGVPDRFSGSGSGTDFTLKISRVEAEDVGVYYCFQGSHVPLTFGGGTKVEIK
notes: as for B1
B15: Hu1B5-H1/Hu1B5-L5 (antibody, human IgG1, V domains shown)
VH: QVQLVQSGAEVKKPGASVKVSCKASGFTFTRFWMNWVRQAPGQGLEWMGRIDPYDSETQYNHKFWDRVTMTRDTSTSTVYMELSSLRSEDTAVYYCGRSLYGKGDYWGQGTTVTVSS
VL: DIVMTQSPDSLAVSLGERATINCRSSQSIVHSNGNTYLEWYQQKPGQPPKLLIYKVSNRFSGVPDRFSGSGSGTDFTLTISSLQAEDVAVYYCFQGSHVPLTFGGGTKVEIK
notes: as for B1
B16: Hu1B5-H2/Hu1B5-L5 (antibody, human IgG1, V domains shown)
VH: EVQLVQSGAEVKKPGASVKVSCKTSGFTFTRFWMNWVRQAPGQGLEWMGRIDPYDSETQYNHKFWDRVTMTVDTSTSTVYMELSSLRSEDTAVYYCGRSLYGKGDYWGQGTTVTVSS
VL: DIVMTQSPDSLAVSLGERATINCRSSQSIVHSNGNTYLEWYQQKPGQPPKLLIYKVSNRFSGVPDRFSGSGSGTDFTLTISSLQAEDVAVYYCFQGSHVPLTFGGGTKVEIK
notes: as for B1
B17: Hu1B5-H2/Hu1B5-L4 (antibody, human IgG1, V domains shown)
VH: EVQLVQSGAEVKKPGASVKVSCKTSGFTFTRFWMNWVRQAPGQGLEWMGRIDPYDSETQYNHKFWDRVTMTVDTSTSTVYMELSSLRSEDTAVYYCGRSLYGKGDYWGQGTTVTVSS
VL: DVVMTQSPLSLPVTPGEPASISCRSSQSIVHSNGNTYLEWYLQKPGQSPQLLIYKVSNRFSGVPDRFSGSGSGTDFTLKISRVEAEDVGVYYCFQGSHVPLTFGGGTKVEIK
notes: as for B1
B18: Hu1B5-H4/Hu1B5-L4 (antibody, human IgG1, V domains shown)
VH: EVQLVQSGAEVKKPGASVKVSCKTSGFTFTRFWMNWVRQAPGQGLEWIGRIDPYDSETQYNHKFWDRATLTVDKSSSTVYMELSSLRSEDTAVYYCGRSLYGKGDYWGQGTTVTVSS
VL: DVVMTQSPLSLPVTPGEPASISCRSSQSIVHSNGNTYLEWYLQKPGQSPQLLIYKVSNRFSGVPDRFSGSGSGTDFTLKISRVEAEDVGVYYCFQGSHVPLTFGGGTKVEIK
notes: as for B1
B19: Hu1B5-H5/Hu1B5-L5 (antibody, human IgG1, V domains shown)
VH: EVQLVQSGAEVKKPGASVKVSCKTSGFTFTRFWMNWVRQAPGQGLEWIGRIDPYDSETQYAHKFWDRATLTVDKSSSTVYMELSSLRSEDTAVYYCGRSLYGKGDYWGQGTTVTVSS
VL: DIVMTQSPDSLAVSLGERATINCRSSQSIVHSNGNTYLEWYQQKPGQPPKLLIYKVSNRFSGVPDRFSGSGSGTDFTLTISSLQAEDVAVYYCFQGSHVPLTFGGGTKVEIK
notes: as for B1
B20: Hu1B5-H4/Hu1B5-L5 (antibody, human IgG1, V domains shown)
VH: EVQLVQSGAEVKKPGASVKVSCKTSGFTFTRFWMNWVRQAPGQGLEWIGRIDPYDSETQYNHKFWDRATLTVDKSSSTVYMELSSLRSEDTAVYYCGRSLYGKGDYWGQGTTVTVSS
VL: DIVMTQSPDSLAVSLGERATINCRSSQSIVHSNGNTYLEWYQQKPGQPPKLLIYKVSNRFSGVPDRFSGSGSGTDFTLTISSLQAEDVAVYYCFQGSHVPLTFGGGTKVEIK
notes: as for B1
B21: Hu1B5-H2.1/Hu1B5-L4 (antibody, human IgG1, V domains shown)
VH: EVQLVQSGAEVKKPGASVKVSCKTSGFTFTRFWMNWVRQAPGQGLEWIGRIDPYDSETQYNHKFWDRVTMTVDTSTSTVYMELSSLRSEDTAVYYCGRSLYGKGDYWGQGTTVTVSS
VL: DVVMTQSPLSLPVTPGEPASISCRSSQSIVHSNGNTYLEWYLQKPGQSPQLLIYKVSNRFSGVPDRFSGSGSGTDFTLKISRVEAEDVGVYYCFQGSHVPLTFGGGTKVEIK
notes: as for B1

molecular target: T1, human adenosine A2A receptor (A2aR) (human, UniProt P29274 1-412); test: flow cytometry, HEK293-hA2aR cells, supernatant 1 ug/ml
T1 construct: Assays used HEK293 cells stably overexpressing human A2aR (BPS Bioscience 79381), human A2aR-expressing CHO cells, or endogenous A2aR on human PBMC; also called human A2aR; hA2aR
T1 sequence (P29274 whole entry): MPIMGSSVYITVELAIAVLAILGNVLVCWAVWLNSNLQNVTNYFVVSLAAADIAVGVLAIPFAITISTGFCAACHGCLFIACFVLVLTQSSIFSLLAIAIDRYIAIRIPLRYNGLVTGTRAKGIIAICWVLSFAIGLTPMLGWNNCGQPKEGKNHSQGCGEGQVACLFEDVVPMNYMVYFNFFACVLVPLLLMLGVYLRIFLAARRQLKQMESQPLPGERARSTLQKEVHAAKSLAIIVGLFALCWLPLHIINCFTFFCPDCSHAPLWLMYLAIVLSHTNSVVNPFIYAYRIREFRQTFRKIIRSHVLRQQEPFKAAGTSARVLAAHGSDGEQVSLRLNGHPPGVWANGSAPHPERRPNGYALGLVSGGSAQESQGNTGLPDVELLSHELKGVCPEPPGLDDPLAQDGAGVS

Binder	MFI [MFI]
B1	1990
B2	1960
B3	1960
B4	1450
B5	1880
B6	255
B7	1890
B8	1840

molecular target: T1, human adenosine A2A receptor (A2aR); test: as above; remark: another data set of the same source

Binder	MFI [MFI]
B9	1570
B10	34
B11	960
B12	686
B13	1550
B14	1710
B15	481
B16	728
B17	1630
B18	1780
B19	823
B20	872
B21	1720
